Laboratory results as given in patent US20240166748A1.
Where “and” joins values, the source holds several entries; their conditions need not be identical. Equal entries are not always repeated.

B1: wild-type canine IgG.B Fc (SASA-tagged CH2-CH3) (Fc fusion, part only; not given: serum albumin single-domain tag, part only)
chain, part: APEMLGGPSVFIFPPKPKDTLLIARTPEVTCVVVDLDPEDPEVQISWFVDGKQMQTAKTQPREEQFNGTYRVVSVLPIGHQDWLKGKQFTCKVNNKALPSPIERTISKARGQAHQPSVYVLPPSREELSKNTVSLTCLIKDFFPPDIDVEWQSNGQQEPESKYRTTPPQLDEDGSYFLYSKLSVDKSRWQRGDTFICAVMHEALHNHYTQESLSHSPGK

Target: T1, canine FcRn (UniProtKB-E2R0L6 [FcRn] and UniProtKB-E2RN10 [canine beta-2-microglobulin]) (canine)
Assay: SPR Biacore 8K, pH 5.5, Fc captured via SASA tag on BSA, canine FcRn 400 nM

| Molecule | Kd | WT KD Avg/Variant KD | kon | koff |
| --- | --- | --- | --- | --- |
| canine IgG.B Fc variant M428A (SASA-tagged CH2-CH3) (Fc fusion) | 723 nM and 1670 nM | 0.78 and 0.34 | 234000 M⁻¹ s⁻¹ and 318000 M⁻¹ s⁻¹ |  |
| canine IgG.B Fc variant Q311A (SASA-tagged CH2-CH3) (Fc fusion) | 368 nM and 370 nM | 1.54 and 1.53 | 2.43e+06 M⁻¹ s⁻¹ and 1.34e+06 M⁻¹ s⁻¹ | 0.894 s⁻¹ and 0.496 s⁻¹ |
| canine IgG.B Fc variant D378A (SASA-tagged CH2-CH3) (Fc fusion) | 673 nM and 592 nM | 0.84 and 0.96 | 272000 M⁻¹ s⁻¹ and 306000 M⁻¹ s⁻¹ | 0.183 s⁻¹ and 0.181 s⁻¹ |
| canine IgG.B Fc variant Y436A (SASA-tagged CH2-CH3) (Fc fusion) | 393 nM and 876 nM | 1.44 and 0.65 |  | 0.407 s⁻¹ and 0.213 s⁻¹ |
| canine IgG.B Fc variant T256A (SASA-tagged CH2-CH3) (Fc fusion) | 447 nM and 298 nM | 1.27 and 1.9 |  |  |
| canine IgG.B Fc variant Q285A (SASA-tagged CH2-CH3) (Fc fusion) | 341 nM and 257 nM | 1.66 and 2.2 |  |  |
| canine IgG.B Fc variant E380A (SASA-tagged CH2-CH3) (Fc fusion) | 618 nM and 747 nM | 0.76 and 0.92 | 598000 M⁻¹ s⁻¹ and 241000 M⁻¹ s⁻¹ | 0.369 s⁻¹ and 0.18 s⁻¹ |
| canine IgG.B Fc variant N434A (SASA-tagged CH2-CH3) (Fc fusion) | 457 nM and 494 nM | 1.24 and 1.14 | 518000 M⁻¹ s⁻¹ and 966000 M⁻¹ s⁻¹ | 0.237 s⁻¹ and 0.477 s⁻¹ |
| canine IgG.B Fc variant K315A (SASA-tagged CH2-CH3) (Fc fusion) | 422 nM and 548 nM | 1.34 and 1.03 |  |  |
| canine IgG.B Fc variant L252A (SASA-tagged CH2-CH3) (Fc fusion) | 292 nM and 240 nM | 1.94 and 2.36 |  |  |
| canine IgG.B Fc variant I308A (SASA-tagged CH2-CH3) (Fc fusion) | 472 nM and 563 nM | 1.2 and 1 | 357000 M⁻¹ s⁻¹ and 345000 M⁻¹ s⁻¹ | 0.169 s⁻¹ and 0.194 s⁻¹ |
| canine IgG.B Fc variant T250A (SASA-tagged CH2-CH3) (Fc fusion) | 335 nM and 328 nM | 1.69 and 1.72 |  |  |
| canine IgG.B Fc variant A254S (SASA-tagged CH2-CH3) (Fc fusion) | 340 nM and 317 nM | 1.66 and 1.78 |  |  |
| canine IgG.B Fc variant H433A (SASA-tagged CH2-CH3) (Fc fusion) | 266 nM and 359 nM | 2.13 and 1.58 |  | 0.229 s⁻¹ and 0.0997 s⁻¹ |
| canine IgG.B Fc variant G309A (SASA-tagged CH2-CH3) (Fc fusion) | 245 nM and 294 nM | 2.31 and 1.92 |  |  |
| canine IgG.B Fc variant P307A (SASA-tagged CH2-CH3) (Fc fusion) | 325 nM and 338 nM | 1.74 and 1.67 |  |  |
| canine IgG.B Fc variant T286A (SASA-tagged CH2-CH3) (Fc fusion) | 464 nM and 569 nM | 1.22 and 0.99 | 422000 M⁻¹ s⁻¹ and 533000 M⁻¹ s⁻¹ | 0.196 s⁻¹ and 0.304 s⁻¹ |

Target: T1, canine FcRn
Assay: SPR Biacore 8K, pH 5.5, Fc captured via SASA tag on BSA, canine FcRn 200 nM

| Molecule | Kd | koff | kon |
| --- | --- | --- | --- |
| B1 | 955 nM and 1310 nM | 0.181 s⁻¹ and 0.209 s⁻¹ | 190000 M⁻¹ s⁻¹ and 159000 M⁻¹ s⁻¹ |

Target: T1, canine FcRn
Assay: SPR Biacore 8K, pH 5.5, canine FcRn 400 nM; average of the 12 wild-type runs

| Molecule | Kd [nM] |
| --- | --- |
| B1 | 566 |

Target: T1, canine FcRn
Assay: SPR Biacore 8K, pH 5.5, Fc captured via SASA tag on BSA, canine FcRn 200 nM
Remark: another data set of the same source

| Molecule | Kd | koff | kon |
| --- | --- | --- | --- |
| B1 | 502 nM and 784 nM | 0.169 s⁻¹ and 0.207 s⁻¹ | 336000 M⁻¹ s⁻¹ and 264000 M⁻¹ s⁻¹ |

Target: T1, canine FcRn
Assay: as above
Remark: another data set of the same source

| Molecule | Kd | koff | kon |
| --- | --- | --- | --- |
| B1 | 884 nM and 862 nM | 0.21 s⁻¹ and 0.218 s⁻¹ | 237000 M⁻¹ s⁻¹ and 253000 M⁻¹ s⁻¹ |

Target: T1, canine FcRn
Assay: as above
Remark: another data set of the same source

| Molecule | Kd | koff | kon |
| --- | --- | --- | --- |
| canine IgG.B Fc variant N434Y (SASA-tagged CH2-CH3) (Fc fusion) | 15.9 nM | 0.00968 s⁻¹ | 607000 M⁻¹ s⁻¹ |
| canine IgG.B Fc variant L252M (SASA-tagged CH2-CH3) (Fc fusion) | 869 nM and 774 nM | 0.168 s⁻¹ and 0.169 s⁻¹ | 193000 M⁻¹ s⁻¹ and 218000 M⁻¹ s⁻¹ |
| canine IgG.B Fc variant N434W (SASA-tagged CH2-CH3) (Fc fusion) | 40.4 nM and 75.7 nM |  |  |
| canine IgG.B Fc variant T250Q (SASA-tagged CH2-CH3) (Fc fusion) | 2590 nM and 2840 nM | 0.258 s⁻¹ and 0.268 s⁻¹ | 99600 M⁻¹ s⁻¹ and 94300 M⁻¹ s⁻¹ |
| canine IgG.B Fc variant E380A (SASA-tagged CH2-CH3) (Fc fusion) | 1320 nM and 1570 nM | 0.223 s⁻¹ and 0.239 s⁻¹ | 168000 M⁻¹ s⁻¹ and 152000 M⁻¹ s⁻¹ |
| canine IgG.B Fc variant N434A (SASA-tagged CH2-CH3) (Fc fusion) | 573 nM and 629 nM | 0.156 s⁻¹ and 0.164 s⁻¹ | 272000 M⁻¹ s⁻¹ and 261000 M⁻¹ s⁻¹ |
| canine IgG.B Fc variant L252Y (SASA-tagged CH2-CH3) (Fc fusion) | 98.7 nM and 114 nM | 0.0397 s⁻¹ and 0.041 s⁻¹ | 402000 M⁻¹ s⁻¹ and 358000 M⁻¹ s⁻¹ |
| canine IgG.B Fc variant D378V (SASA-tagged CH2-CH3) (Fc fusion) | 693 nM and 873 nM | 0.159 s⁻¹ and 0.16 s⁻¹ | 229000 M⁻¹ s⁻¹ and 184000 M⁻¹ s⁻¹ |
| canine IgG.B Fc variant N434R (SASA-tagged CH2-CH3) (Fc fusion) | 107 nM and 159 nM | 0.0524 s⁻¹ and 0.0633 s⁻¹ | 488000 M⁻¹ s⁻¹ and 399000 M⁻¹ s⁻¹ |
| canine IgG.B Fc variant A254T (SASA-tagged CH2-CH3) (Fc fusion) | 2290 nM and 1340 nM | 0.375 s⁻¹ and 0.433 s⁻¹ | 163000 M⁻¹ s⁻¹ and 323000 M⁻¹ s⁻¹ |
| canine IgG.B Fc variant N434S (SASA-tagged CH2-CH3) (Fc fusion) | 924 nM and 1050 nM | 0.207 s⁻¹ and 0.209 s⁻¹ | 225000 M⁻¹ s⁻¹ and 199000 M⁻¹ s⁻¹ |
| canine IgG.B Fc variant T250E (SASA-tagged CH2-CH3) (Fc fusion) | 2480 nM and 1660 nM | 0.284 s⁻¹ and 0.287 s⁻¹ | 114000 M⁻¹ s⁻¹ and 172000 M⁻¹ s⁻¹ |
| canine IgG.B Fc variant Q311V (SASA-tagged CH2-CH3) (Fc fusion) | 372 nM and 439 nM | 0.566 s⁻¹ and 0.696 s⁻¹ | 1.52e+06 M⁻¹ s⁻¹ and 1.59e+06 M⁻¹ s⁻¹ |
| B1 | 8990 nM and 3110 nM | 0.347 s⁻¹ and 0.354 s⁻¹ | 38700 M⁻¹ s⁻¹ and 114000 M⁻¹ s⁻¹ |

Target: T1, canine FcRn
Assay: SPR Biacore 8K, pH 5.5, Fc captured via SASA tag on BSA, canine FcRn 100-800 nM

| Molecule | Kd [nM] | koff [s⁻¹] | kon [M⁻¹ s⁻¹] |
| --- | --- | --- | --- |
| canine IgG.B Fc variant N434Y (SASA-tagged CH2-CH3) (Fc fusion) | 29.1 | 0.0151 | 520000 |
| canine IgG.B Fc variant N434W (SASA-tagged CH2-CH3) (Fc fusion) | 101 | 0.045 | 446000 |
| canine IgG.B Fc variant N434H (SASA-tagged CH2-CH3) (Fc fusion) | 247 | 0.102 | 411000 |
| canine IgG.B Fc YTE variant (L252Y/A254T/T256E) (SASA-tagged CH2-CH3) (Fc fusion) | 184 | 0.046 | 250000 |
| canine IgG.B Fc variant L252Y (SASA-tagged CH2-CH3) (Fc fusion) | 173 | 0.0476 | 275000 |
| canine IgG.B Fc variant N434R (SASA-tagged CH2-CH3) (Fc fusion) | 182 | 0.0801 | 440000 |
| B1 | 3150 | 0.527 | 168000 |

Target: T1, canine FcRn
Assay: SPR Biacore 8K, pH 5.5, Fc captured via SASA tag on BSA, canine FcRn 200 nM
Remark: another data set of the same source

| Molecule | Kd | koff | kon |
| --- | --- | --- | --- |
| B1 | 1560 nM and 754 nM | 0.179 s⁻¹ and 0.182 s⁻¹ | 115000 M⁻¹ s⁻¹ and 242000 M⁻¹ s⁻¹ |

Target: T1, canine FcRn
Assay: as above
Remark: another data set of the same source

| Molecule | Kd | koff | kon |
| --- | --- | --- | --- |
| B1 | 639 nM and 692 nM | 0.17 s⁻¹ and 0.171 s⁻¹ | 267000 M⁻¹ s⁻¹ and 247000 M⁻¹ s⁻¹ |

Target: T1, canine FcRn
Assay: as above
Remark: another data set of the same source

| Molecule | Kd | koff | kon |
| --- | --- | --- | --- |
| B1 | 2050 nM and 2990 nM | 0.31 s⁻¹ and 0.315 s⁻¹ | 151000 M⁻¹ s⁻¹ and 105000 M⁻¹ s⁻¹ |

Target: T1, canine FcRn
Assay: as above
Remark: another data set of the same source

| Molecule | Kd | koff | kon |
| --- | --- | --- | --- |
| B1 | 1710 nM and 2660 nM | 0.288 s⁻¹ and 0.326 s⁻¹ | 168000 M⁻¹ s⁻¹ and 123000 M⁻¹ s⁻¹ |
